In patent US20230391852A1 (US Dept. of Health and Human Services, published 2023):

B1: 8A2 VHH-hFc (Fc fusion)
chain: AVQLVDSGGGSVQAGGSLRLSCAASGYTYSICTMGWYRQAPGEGLEWVSGINADGSNTHYTDSVKGRFTISRDNAKKTLYLQMNSLKPEDTAIYYCAAHGTYDKYAPCGGFAGTYTYWGQGTQVTVSS
notes: also called NCI-CoV-8A2 VHH-hFc
B2: 1H6 VHH-hFc (Fc fusion)
chain: AVQLVDSGGGSVQAGGSLNLSCVASGTTLRNGCMAWFRQVPGKEREVVAIIIRATSYTDYADSVKGRFTISQDNAKNTVYLQMKSLTPEDTATYYCAATLYRVNCAKREFDKWGQGTQVTVSS
notes: also called 1H6-hFc; NCI-CoV-1H6 VHH-hFc fusion protein
B3: 1B5 VHH-hFc (Fc fusion)
chain: DVQLVESGGGSVQAGGSLRLSCTGSRYTYSTYCMGWFRQAPGKEEEAVAIINSGGGEPYYGDSVKGRFTISQDRAKNTVYLQMDGLQPDDTAIYYCVAADSHNSRCYLGRSYVNYWGQGTQVTVSS
notes: also called 1B5-hFc; NCI-CoV-1B5 VHH-hFc fusion protein
B4: 8A4 VHH-hFc (Fc fusion)
chain: EVQLVESGGGLVQPGESLRLSCEASGFTFSSVYMSWVRQAPGKGLEWISTIHPAGGSTYYADSMKDRFTISRDNAKNTLYLQMNSLKSEDTALYYCIIEALSGYRGPGTQVTVSS
notes: also called 8A4-hFc; NCI-CoV-8A4 VHH-hFc fusion protein
B5: 7A3 VHH-hFc (Fc fusion)
chain: QVQLVESGGGSVQPGGSLRLSCVVSGYTSSSRYMGWFRQVPGKGLEWVSGIKRDGTNTYYADSVKGRFTISQDNAKNTVYLQMNSLKPEDTAMYYCAAGSWYNQWGYSMDYWGKGTQVTVSS
notes: also called 7A3-hFc; NCI-CoV-7A3 VHH-hFc fusion protein
B6: 2F7 VHH-hFc (Fc fusion)
chain: QVKLEESGGGSVQSGGSLRLSCTVSRDTNTNINRCMGWFRQAPGKGLETVATINRDGTNTYYTDAVKGRFTISQDNVKNTVYLQMNNLTPEDTGTYICNAMGRGSGSRCDNWDPNYWGQGTQVTVSS
notes: also called 2F7-hFc; NCI-CoV-2F7 VHH-hFc fusion protein

Target: SARS-CoV-2 S protein trimer expressed on human A431 cells (SARS-CoV-2, UniProt P0DTC2 14-1273)
Assay: flow cytometry on A431 cells expressing SARS-CoV-2 S (A431-CoV-2-S)

Question: Which “percent of cells right of the dashed gate line” value (“percent” below) does the source give for B1 here?
Answer: 98.7%

Question: How did the “percent” value turn out when B2 was run?
Answer: 99.5%

Question: Which “percent” value does the source give for B3 here?
Answer: 99.1%

Question: Which “percent” value does the source give for B4 here?
Answer: 99.4%

Question: How did the “percent” value turn out when B5 was run?
Answer: 99.5%

Question: For B6, which “percent” value is on record?
Answer: 99.3%
